{"source": "patent US5679639", "key": {"[1]": {"target": "human activated Factor X (Xa) (human)"}, "[2]": {"target": "Factor Va (activated Factor V)"}, "[3]": {"target": "activated protein C (APC) (human)"}, "[4]": {"target": "human activated Factor X (Xa) (human)", "remark": "listed apart in the source"}, "[5]": {"target": "Factor Va (activated Factor V)", "remark": "listed apart in the source"}, "[6]": {"target": "Factor Va (activated Factor V)", "remark": "listed apart in the source"}, "[7]": {"target": "activated protein C (APC) (human)", "remark": "listed apart in the source"}, "[8]": {"target": "human activated Factor X (Xa) (human)", "remark": "listed apart in the source"}, "[9]": {"target": "activated protein C (APC) (human)", "remark": "listed apart in the source"}, "[10]": {"target": "Factor IXa (Homo sapiens (Human))", "parameters": "unit not given beside the values"}, "[11]": {"target": "Factor IXa (Homo sapiens (Human))"}, "[12]": {"target": "activated protein C (APC) (human)", "remark": "listed apart in the source"}, "[13]": {"target": "Factor Va (activated Factor V)", "remark": "listed apart in the source"}, "[14]": {"target": "activated protein C (APC) (human)", "remark": "listed apart in the source"}, "[15]": {"target": "Factor Va (activated Factor V)", "remark": "listed apart in the source"}}, "note": "Where two headings read alike, the source gives them in different places. No end group written: not given here."}
{"molecule": "synthetic peptide PT473-487", "values": [{"measurement": "IC50, Factor Xa-1 stage clotting assay", "setting": "[1]", "value": 25, "unit": "µM"}, {"measurement": "IC50, prothrombinase assay in the presence of Factor Va (1 nM Xa, 0.4 nM Va, 1.2 uM prothrombin)", "setting": "[2]", "value": 10, "unit": "µM"}]}
{"molecule": "synthetic peptide PC48-62", "values": [{"measurement": "Inhibition of APC (%), Xa-1 stage coagulation assay in NHP, 500 µM peptide", "setting": "[3]", "value": 0, "unit": "%"}]}
{"molecule": "synthetic peptide PC110-124", "values": [{"measurement": "Inhibition of APC (%), Xa-1 stage coagulation assay in NHP, 500 µM peptide", "setting": "[3]", "value": 0, "unit": "%"}]}
{"molecule": "synthetic peptide PT557-571", "values": [{"measurement": "IC50, Factor Xa-1 stage clotting assay", "setting": "[1]", "value": 50, "unit": "µM"}, {"measurement": "IC50, prothrombinase assay in the absence of Factor Va", "setting": "[4]", "value": 80, "unit": "µM"}, {"measurement": "IC50, prothrombinase assay in the presence of Factor Va", "setting": "[4]", "value": 40, "unit": "µM"}]}
{"molecule": "synthetic peptide PC65-79", "values": [{"measurement": "Inhibition of APC (%), Xa-1 stage coagulation assay in NHP, 500 µM peptide", "setting": "[3]", "value": 0, "unit": "%"}]}
{"molecule": "synthetic peptide PT463-478", "values": [{"measurement": "IC50, Factor Xa-1 stage clotting assay", "setting": "[1]", "value": "> 500", "unit": "µM"}]}
{"molecule": "activated protein C (APC) (enzyme)", "values": [{"measurement": "rate of Factor Va inactivation (% Vi/min), 5 nM APC and 40 nM Va, no phospholipids", "setting": "[5]", "value": 4, "unit": "% Vi/min"}]}
{"molecule": "EKGRQSTRLKMLEVPY-NH2", "note": "[synthetic peptide X329-344]", "values": [{"measurement": "IC50, Factor Xa-1 stage clotting assay", "setting": "[1]", "value": 500, "unit": "µM"}]}
{"molecule": "MHKLREGKWRPKSR-NH2", "note": "[scrambled peptide with a randomized sequence of residues 142-155]", "values": [{"measurement": "prothrombinase activity in the presence of Factor Va", "setting": "[6]", "value": 40, "unit": "%"}, {"measurement": "APC amidolytic activity towards S-2366, change in A405/5 minutes (none: 0.374) (A405/5 minutes)", "setting": "[7]", "value": 0.364}, {"measurement": "Factor Xa clotting activity in NHP (0.15 nM factor Xa)", "setting": "[8]", "value": 37, "unit": "%"}]}
{"molecule": "KLGDDLLQCHPAVKF-NH2 (also: native Cys substituted by Ser or Gly, which position not given here)", "note": "[synthetic peptide PC125-139]", "values": [{"measurement": "Inhibition of APC (%), Xa-1 stage coagulation assay in NHP, 500 µM peptide", "setting": "[3]", "value": 30, "unit": "%"}]}
{"molecule": "KHVDGDQCLVLPLEH-NH2 (also: native Cys substituted by Ser or Gly, which position not given here)", "note": "[synthetic peptide PC43-57]", "values": [{"measurement": "Inhibition of APC (%), Xa-1 stage coagulation assay in NHP, 500 µM peptide", "setting": "[3]", "value": 0, "unit": "%"}]}
{"molecule": "HPAVKFPCGRPWKRM-NH2 (also: native Cys substituted by Ser or Gly, which position not given here)", "note": "[synthetic peptide PC134-148]", "values": [{"measurement": "Inhibition of APC (%), Xa-1 stage coagulation assay in NHP, 500 µM peptide", "setting": "[3]", "value": 66, "unit": "%"}, {"measurement": "50% inhibition of APC anticoagulant activity, Xa-1-stage assay in NHP", "setting": "[9]", "value": 250, "unit": "µM"}]}
{"molecule": "DTLAFWSKHVDGDQC-NH2 (also: native Cys substituted by Ser or Gly, which position not given here)", "note": "[synthetic peptide PC36-50]", "values": [{"measurement": "Inhibition of APC (%), Xa-1 stage coagulation assay in NHP, 500 µM peptide", "setting": "[3]", "value": 0, "unit": "%"}]}
{"molecule": "HKGRSALVLQYLRVPL-NH2", "note": "[synthetic peptide IX315-330]", "values": [{"measurement": "IC50, Factor IXa-1 stage clotting assay", "setting": "[10]", "value": 30}, {"measurement": "IC50, tenase assay (Factor Xa generation) in the presence of Factor VIIIa", "setting": "[11]", "value": 2, "unit": "µM"}, {"measurement": "IC50, tenase assay in the absence of VIIIa", "setting": "[11]", "value": "40 to 60", "unit": "µM"}]}
{"molecule": "VKFTIRVFNPRNLKI-NH2", "note": "[control peptide with a randomized sequence of residues 311-325]", "values": [{"measurement": "Factor Xa clotting activity in NHP (0.15 nM factor Xa)", "setting": "[8]", "value": 30, "unit": "%"}]}
{"molecule": "RSGWEGRFCQREVSF-NH2 (also: native Cys substituted by Ser or Gly, which position not given here)", "note": "[synthetic peptide PC81-95]", "values": [{"measurement": "Inhibition of APC (%), Xa-1 stage coagulation assay in NHP, 500 µM peptide", "setting": "[3]", "value": 40, "unit": "%"}]}
{"molecule": "YGIYTKVSRYVNWIK-NH2", "note": "[synthetic peptide IX395-409]", "values": [{"measurement": "IC50, Factor IXa-1 stage clotting assay", "setting": "[10]", "value": 25}, {"measurement": "IC50, tenase assay (Factor Xa generation) in the presence of Factor VIIIa", "setting": "[11]", "value": 6, "unit": "µM"}, {"measurement": "IC50, tenase assay in the absence of VIIIa", "setting": "[11]", "value": "40 to 60", "unit": "µM"}]}
{"molecule": "LVLQYLRVPLVDRAT-NH2", "note": "[synthetic peptide IX321-335]", "values": [{"measurement": "IC50, Factor IXa-1 stage clotting assay", "setting": "[10]", "value": 30}, {"measurement": "IC50, tenase assay in the presence of Factor VIIIa", "setting": "[11]", "value": "100 to 140", "unit": "µM"}]}
{"molecule": "ARKGKYGIYTKVTAF-NH2", "note": "[synthetic peptide X404-418]", "values": [{"measurement": "IC50, Factor IXa-1 stage clotting assay", "setting": "[10]", "value": 50}, {"measurement": "IC50, tenase assay in the presence of VIIIa", "setting": "[11]", "value": 150, "unit": "µM"}, {"measurement": "IC50, Factor Xa-1 stage clotting assay", "setting": "[1]", "value": 50, "unit": "µM"}, {"measurement": "IC50, prothrombinase assay in the presence of Factor Va (1 nM Xa, 0.4 nM Va, 1.2 uM prothrombin)", "setting": "[2]", "value": 75, "unit": "µM"}]}
{"molecule": "KRNRTFVLNFIKIPV-NH2", "note": "[synthetic peptide PC311-325]", "values": [{"measurement": "IC90** (concentration of peptide that inhibits 90% of APC anticoagulant activity), mean of APTT and Xa-1 stage coagulation assays in NHP", "setting": "[12]", "value": 50, "unit": "µM"}, {"measurement": "prothrombinase activity in the presence of Factor Va (1 nM Xa, 0.4 nM Va, 1.2 µM prothrombin)", "setting": "[13]", "value": 8, "unit": "µM"}, {"measurement": "APC-catalyzed inactivation of Factor Va in the absence of phospholipids", "setting": "[5]", "value": 87, "unit": "%"}, {"measurement": "half-maximal inhibition of the APC-catalyzed inactivation of Factor Va, with phospholipid vesicles", "setting": "[5]", "value": 6, "unit": "µM"}, {"measurement": "50% inhibition of APC anticoagulant activity in APTT and Xa-1-stage assays in NHP and PSDP", "setting": "[14]", "value": "7 to 20", "unit": "µM"}, {"measurement": "APC amidolytic activity towards S-2366, change in A405/5 minutes (none: 0.374) (A405/5 minutes)", "setting": "[7]", "value": 0.342}, {"measurement": "Factor Xa clotting activity in NHP (0.15 nM factor Xa)", "setting": "[8]", "value": 7, "unit": "µM"}]}
{"molecule": "GRPWKRMEKKRSHLC-NH2", "note": "[synthetic peptide PC142-155 with an additional carboxy-terminal cysteine]", "values": [{"measurement": "prothrombinase activity in the presence of Factor Va", "setting": "[13]", "value": 40, "unit": "µM"}, {"measurement": "Inhibition of APC (%), Xa-1 stage coagulation assay in NHP, 500 µM peptide", "setting": "[3]", "value": 80, "unit": "%"}, {"measurement": "50% inhibition of APC anticoagulant activity, Xa-1-stage coagulation assay in NHP", "setting": "[9]", "value": 25, "unit": "µM"}, {"measurement": "50% inhibition of APC anticoagulant activity, Xa-1-stage coagulation assay in protein S-depleted plasma", "setting": "[9]", "value": 5, "unit": "µM"}, {"measurement": "APC-catalyzed inactivation of Factor Va in the absence of phospholipids", "setting": "[15]", "value": 87, "unit": "%"}, {"measurement": "half-maximal inhibition of the APC-catalyzed inactivation of Factor Va, with phospholipid vesicles", "setting": "[15]", "value": 50, "unit": "µM"}, {"measurement": "APC amidolytic activity towards S-2366, change in A405/5 minutes (none: 0.374) (A405/5 minutes)", "setting": "[7]", "value": 0.344}, {"measurement": "Factor Xa clotting activity in NHP (0.15 nM factor Xa)", "setting": "[8]", "value": 10, "unit": "µM"}]}
{"molecule": "APGYKLGDDLLQCHP-NH2 (also: native Cys substituted by Ser or Gly, which position not given here)", "note": "[synthetic peptide PC121-135]", "values": [{"measurement": "Inhibition of APC (%), Xa-1 stage coagulation assay in NHP, 500 µM peptide", "setting": "[3]", "value": 0, "unit": "%"}]}
{"molecule": "QVVNLPIVERPVSKD-NH2 (not fully specified)", "note": "[synthetic peptide PT481-495]", "values": [{"measurement": "IC50, Factor Xa-1 stage clotting assay", "setting": "[1]", "value": "> 500", "unit": "µM"}]}
{"molecule": "VTAFLKWIDRSMKTR-NH2", "note": "[synthetic peptide X415-429]", "values": [{"measurement": "IC50, Factor IXa-1 stage clotting assay", "setting": "[10]", "value": 0}, {"measurement": "IC50, tenase assay in the presence of VIIIa", "setting": "[11]", "value": 45, "unit": "µM"}, {"measurement": "IC50, Factor Xa-1 stage clotting assay", "setting": "[1]", "value": 115, "unit": "µM"}, {"measurement": "IC50, prothrombinase assay with or without Factor Va", "setting": "[4]", "value": 500, "unit": "µM"}]}
{"molecule": "VLNFIKIPVVPHNEC-NH2", "note": "[synthetic peptide PC317-331]", "values": [{"measurement": "IC90** (concentration of peptide that inhibits 90% of APC anticoagulant activity), mean of APTT and Xa-1 stage coagulation assays in NHP", "setting": "[12]", "value": 500, "unit": "µM"}]}
{"molecule": "KVSRYVNWIKEKTKL-NH2", "note": "[synthetic peptide IX400-414]", "values": [{"measurement": "IC50, Factor IXa-1 stage clotting assay", "setting": "[10]", "value": 50}, {"measurement": "IC50, tenase assay in the presence of Factor VIIIa", "setting": "[11]", "value": "100 to 140", "unit": "µM"}]}
